From patent US10287317B2, “Proprotein convertase subtilisin kexin type 9 (PCSK9) allosteric binding ligands to modulate serum low density lipoprotein (LDL) levels” (SRX Cardio, LLC, priority 2013, dated 2019)
Where no end group is shown, it is not given here.

How the values were obtained:
normal PCSK9 (WT) [1] = biological target: T1, normal PCSK9 (WT) (Homo sapiens, UniProt Q8NBP7); test: Cellular diI-LDL uptake in HepG2 cells with WT PCSK9; assay type: cell-based; details: HepG2, WT 1.2 ug/ml, pre-incubated 3 hrs at 37 C, dose dependent manner (FIG. 6)
T1 sequence (Q8NBP7 153-692): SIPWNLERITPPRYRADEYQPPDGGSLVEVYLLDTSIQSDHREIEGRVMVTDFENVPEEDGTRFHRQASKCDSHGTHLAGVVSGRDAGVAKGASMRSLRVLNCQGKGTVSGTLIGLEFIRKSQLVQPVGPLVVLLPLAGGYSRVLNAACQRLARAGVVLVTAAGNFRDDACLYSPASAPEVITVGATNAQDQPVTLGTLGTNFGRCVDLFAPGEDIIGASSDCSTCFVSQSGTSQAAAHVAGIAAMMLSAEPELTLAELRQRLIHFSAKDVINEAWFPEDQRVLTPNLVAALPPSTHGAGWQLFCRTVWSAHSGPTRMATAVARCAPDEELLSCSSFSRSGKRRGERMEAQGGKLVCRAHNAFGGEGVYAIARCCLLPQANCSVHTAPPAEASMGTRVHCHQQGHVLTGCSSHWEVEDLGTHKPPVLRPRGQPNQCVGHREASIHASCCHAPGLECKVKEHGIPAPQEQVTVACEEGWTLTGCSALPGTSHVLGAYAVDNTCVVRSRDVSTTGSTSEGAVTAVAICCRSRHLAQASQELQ
Description: (§1) After 16 h, dil-LDL (5 ug/ml) was added to the incubation mixtures. After 4 h, fluorescence was measured (Ex: 520 nm/Em: 575 nm; cutoff: 550 nm). Dil-LDL uptake is calculated as RFU corrected for the number of cells. The PCSK9 and −/+SRX55 [SEQ ID NO: 2] mixtures were pre-incubated for 3 hrs at 37 C prior to addition to the cells.
(§2) LDL internalization was measured by uptake of a fluorescently tagged LDL molecule (diI-LDL) in the absence of exogenous PCSK9 (Cnt), in the presence of exogenous PCSK9 (normal PCSK9=WT, D374Y mutant PCSK9=DY), or in the presence of PCSK9 and a tested peptide (indicated as SRX##, or SRX if a single peptide results is shown in a graph). […]
(§3) Peptide activity was assessed by culturing cells with: i) no SRX peptide/PCSK9 protein complex (control, Cnt); ii) PCSK9 protein; and iii) SRX peptide/PCSK9 complex. […]
(§4) Cells were cultured using one of the combinations of conditions described in the preceding paragraph for 16 hours. After 16 hours, a quantity of diI-LDL (Low density lipoprotein coupled with 1,1′-dioctadecyl-3,3,3′,3′-tetramethylindocarbocyanine perchlorate) needed to bring the media concentration to 5 ug/mL of diI-LDL was added to the culture well and cells continued to be cultured under these new conditions for 4 additional hours. […] Fluorescence of the diI-LDL in the specimens were quantified using excitation at 530 nm and resulting emission at 580 nm. […]

PCSK9-D374Y protein = PCSK9-D374Y protein (Homo sapiens, UniProt Q8NBP7, D374Y); test: Cellular diI-LDL uptake in HuH7 cells with PCSK9-D374Y; assay type: cell-based
Chain of PCSK9-D374Y protein (Q8NBP7 153-692 D374Y): as the sequence (Q8NBP7 153-692) above, with D222Y counted along it
Description: (§5) HuH7 cells were incubated in a 96-well plate for a total of 20 h in the absence (Cnt) or presence of 0.5 μg/ml PCSK9-D374Y protein alone (DY) or mixed with 100 uM of various SRX peptides. After 16 h, dil-LDL (5 ug/ml) was added to the incubation mixtures. After 4 h, fluorescence was measured (Ex: 520 nm/Em: 575 nm; cutoff: 550 nm). Dil-LDL uptake is calculated as RFU corrected for the number of cells.
as §5, with “PCSK9 GOF-D374Y” for “PCSK9-D374Y”, “increasing concentrations” for “100 uM”
(§6) LDL internalization was measured by uptake of a fluorescently tagged LDL molecule (diI-LDL) in the absence of exogenous PCSK9 (Cnt), in the presence of exogenous PCSK9 (normal PCSK9=WT, D374Y mutant PCSK9=DY), or in the presence of PCSK9 and a tested peptide (indicated as SRX##, or SRX if a single peptide results is shown in a graph).
(§7) Cells, such as HepG2, HuH7, FL83B or a cell line transfected with a short-hairpin PCSK9 knockdown sequence such as HepG2/shPCSK9, HuH7/shPCSK9, FL83B/shPCSK9, were seeded at 2×10^4 cells/well in a 96-well plate and cultured at 37 degC in RPMI+10% FBS. After approximately 24 hours, the cell media was aspirated off and replaced with RPMI+3-5 mg/mL LPDS (Lipoprotein Deficient Serum, Millipore) media for further experimentation. Benjannet et al., “Effects of the prosegment and pH on the activity of PCSK9: evidence for additional processing events” J Biol Chem. 285(52): 40965-40978 (2010).
(§8) Peptide activity was assessed by culturing cells with: i) no SRX peptide/PCSK9 protein complex (control, Cnt); ii) PCSK9 protein; and iii) SRX peptide/PCSK9 complex. Various permutations of these experimental conditions were also used, including: i) the addition of wild type PCSK9 (WT); ii) a mutant PCSK9 (e.g., D374Y mutant PCSK9, DY); iii) various SRX peptides and/or PCSK9 at the same concentration and/or combinations; iv) various SRX peptides and/or PCSK9 at different concentrations and/or combinations; v) the use of different cells, as mentioned above, with or without a transfected short-hairpin sequence; vi) a pre-incubation of the PCSK9 and SRX peptide (e.g., 1, hour, 2 hours, 3 hours, 4 hours etc.); vii) various temperatures including, but not limited to, body temperature (e.g., 37° C.), supraphysiologic temperature (e.g., 39° C.); and viii) with/without agitation (e.g., shaker or gentle periodic vortexing).
(§9) Cells were cultured using one of the combinations of conditions described in the preceding paragraph for 16 hours. After 16 hours, a quantity of diI-LDL (Low density lipoprotein coupled with 1,1′-dioctadecyl-3,3,3′,3′-tetramethylindocarbocyanine perchlorate) needed to bring the media concentration to 5 ug/mL of diI-LDL was added to the culture well and cells continued to be cultured under these new conditions for 4 additional hours. At the end of the 4-hour incubation period (20 total hours of cell culture), the cellular uptake was halted with the addition of 4% formaldehyde in 10 uM Hoechst 33342 in a solvent such as deionized autoclaved water or PBS, and specimens were incubated at 20° C. for 20 minutes. Cell specimens were rinsed twice with PBS and then fluorescence measured with excitation at 360 nm and emission detected at 460 nm to measure DNA content. Cell specimens were then be incubated with a 0.1% SDS in a 0.1 N NaOH solution while being shaken for 10 minutes. Fluorescence of the diI-LDL in the specimens were quantified using excitation at 530 nm and resulting emission at 580 nm.
Fluorescence measurements of diI-LDLR were normalized to estimated cell numbers, determined from the Hoechst fluorescence. […]

normal PCSK9 (WT) [2] = biological target: T1, normal PCSK9 (WT); test: Cellular diI-LDL uptake in FL-83B cells with WT PCSK9; assay type: cell-based, mouse; details: FL83B, WT 1.2 ug/ml, pre-incubated 3 hrs at 37 C, dose dependent manner (FIG. 7)
Description: as §1, §2, §3, §4

D374Y PCSK9 (DY) = D374Y PCSK9 (DY) (Homo sapiens, UniProt Q8NBP7, D374Y); test: Cellular diI-LDL uptake in FL-83B cells with D374Y PCSK9; assay type: cell-based, mouse; details: FL83B, D374Y 0.6 ug/ml, pre-incubated 3 hrs at 37 C, dose dependent manner (FIG. 7)
Chain of D374Y PCSK9 (DY) (Q8NBP7 153-692 D374Y): as the sequence (Q8NBP7 153-692) above, with D222Y counted along it
Description: as §1, §2, §3, §4

PCSK9-WT protein = biological target: T2, PCSK9-WT protein (Homo sapiens, UniProt Q8NBP7); test: Cellular diI-LDL uptake in HuH7 cells with PCSK9-WT; assay type: cell-based; details: HuH7, 1.0 μg/ml PCSK9-WT, 100 uM peptide (FIG. 2)
T2 construct: V5
T2 sequence (Q8NBP7 153-692): as the sequence (Q8NBP7 153-692) above
Description: as §5, with “1.0” for “0.5”, “PCSK9-WT” for “PCSK9-D374Y”, “(WT)” for “(DY)”
as §6, §7, §8, §9
Fluorescence measurements of diI-LDLR were normalized to estimated cell numbers, determined from the Hoechst fluorescence. Data was analyzed for the different experimental conditions and reported as percentage relative fluorescence units (RFU) of the Cnt specimen. Percent inhibition was calculated as the difference in RFU of a peptide exposed specimen to the RFU of PCSK9-no peptide, divided by the RFU difference in PCSK9-no peptide to RFU of Cnt specimen, also expressed as [(SRX:RFU)−(PCSK9-no peptide:RFU)]/[(PCSK9-no peptide:RFU)−(Cnt:RFU)]×100.

LDL internalization (dil-LDL % uptake vs Cnt) (normal PCSK9 (WT) [1]): positively modulated (increased)
LDL internalization (dil-LDL % uptake vs Cnt) (PCSK9-D374Y protein; HuH7, 0.5 μg/ml PCSK9-D374Y, 100 uM peptide (FIG. 3)): positively modulated (increased)
LDL internalization (dil-LDL % uptake vs Cnt) (PCSK9-D374Y protein; HuH7, 0.5 μg/ml PCSK9 GOF-D374Y, increasing concentrations of peptide (FIG. 4)): positively modulated (increased)
percent inhibition (dil-LDL uptake) (PCSK9-D374Y protein; HuH7, PCSK9 GOF-D374Y, peptide at 11.1 uM (FIG. 4 bottom panel)): ~0%
LDL internalization (dil-LDL % uptake vs Cnt) (normal PCSK9 (WT) [2]): positively modulated (increased)
LDL internalization (dil-LDL % uptake vs Cnt) (D374Y PCSK9 (DY)): positively modulated (increased)
LDL internalization (dil-LDL % uptake vs Cnt) (PCSK9-WT protein): positively modulated (increased)
Substance: Val-Tyr-Val-Arg-Phe-Trp (VYVRFW; not fully specified (C-terminus); printed as Val-Tyr-Val-Arg-Phe-Trp) [Compound 1]
dose dependence of positive modulation of LDL internalization (PCSK9-D374Y protein; HuH7, PCSK9 GOF-D374Y (FIG. 4)): positive modulation in a dose dependent manner
